Where “and” joins values, the source holds several entries; their conditions need not be identical. Equal values may be shown once.
Biological target: the molecule itself
Assay: SEC; Superdex 200; concentrated protein applied directly to the column, no pre-incubation period; masses estimated against molecular weight standards

B1: extracellular domain of human SidT1 (SidT1 ECD), glycosylated, secreted from insect cells (domain or fragment)
chain: GAASPGHPAKSPRQPPAPRRDPFDAARGADFDHVYSGVVNLSTENIYSFNYTSQPDQVTAVRVYVNSSSENLNYPVLVVVRQQKEVLSWQVPLLFQGLYQRSYNYQEVSRTLCPSEATNETGPLQQLIFVDVASMAPLGAQYKLLVTKLKHFQLRTNVAFHFTASPSQPQYFLYKFPKDVDSVIIKVVSEMAYPCSVVSVQNIMCPVYDLDHNVEFNGVYQSMTKKAAITLQKKDFPGEQFFVVFVIKPEDYACGGSFFIQEKENQTWNLQRKKNLEVTIVPSIKES
modifications: N-linked glycosylation (sites not given)
notes: N-terminal glycine appendage left from the TEV protease site; human SidT1 (Sid-1 homolog), extracellular domain, residues 19-304 of Entrez Protein AAI17223, after signal peptidase and TEV cleavage; also called SidT1 extracellular domain; recombinant SidT1 ECD; source: Tni (usually) or Sf9 insect cells, baculovirus, secreted into the medium; not shown: His6, N-terminal, cleaved
B1 was tested, and the “stoichiometry N” value was 2 and 4.
